According to paper PMC10978848, “Insights into the dual nature of αB-crystallin chaperone activity from the p.P39L mutant at the N-terminal region” (Scientific Reports, 2024):
Numbering of substitutions follows the chain as printed. Numbers in names are those of the source.

B1: human αB-crystallin, wild-type (natural protein, UniProt P02511 1-175, looked up)
chain: MDIAIHHPWIRRPFFPFHSPSRLFDQFFGEHLLESDLFPTSTSLSPFYLRPPSFLRAPSWFDTGLSEMRLEKDRFSVNLDVKHFSPEELKVKVLGDVIEVHGKHEERQDEHGFISREFHRKYRIPADVDPLTITSSLSSDGVLTVNGPRKQVSGPERTIPITREEKPAVTAAPKK
notes: human αB-crystallin (CRYAB, HspB5); It names no tag; also called CRYAB; HspB5; source: E. coli, IPTG-induced, purified (anion exchange, DEAE cellulose); copies: 24
B2: human αB-crystallin p.P39L mutant (natural protein, UniProt P02511 1-175, looked up)
chain: B1 chain with P39L
notes: human αB-crystallin (CRYAB, HspB5) with the variant p.P39L, which was found in a patient; It names no tag; also called p.P39L αB-Cry; mutant αB-Cry; source: E. coli, IPTG-induced, purified (anion exchange, DEAE cellulose); copies: 48

Biological target: the molecule itself
Assay: AUC; sedimentation velocity, 40,000 rpm, 20 °C, absorbance at 280 nm, buffer A (50 mM sodium phosphate, pH 7.4); masses from c(M) after Schuck; size of the oligomer

| Protein | stoichiometry N [subunits] |
| --- | --- |
| B1 | 24 |
| B2 | 48 |
